Test results taken from patent CN101415728A.

B1: M13-C06.G4.P.agly (antibody, part only; not given: constant regions, part only)
heavy, part: EVQLLESGGGLVQPGGSLRLSCAASGFTFSIYRMQWVRQAPGKGLEWVSGISPSGGTTWYADSVKGRFTISRDNSKNTLYLQMNSLRAEDTAVYYCARWSGGSGYAFDIWGQGTMVTVSS
light, part: DIQMTQSPLSLSASVGDRVTITCQASRDIRNYLNWYQQKPGKAPKLLIYDASSLQTGVPSRFGGSGSGTDFSFTIGSLQPEDIATYYCQQFDSLPHTFGQGTKLEIK
B2: M14-C03.G4.P.agly (antibody, part only; not given: constant regions, human IgG4, part only)
heavy, part: EVQLLESGGGLVQPGGSLRLSCAASGFTFSKYMMSWVRQAPGKGLEWVSYISPSGGLTWYADSVKGRFTISRDNSKNTLYLQMNSLRAEDTAVYYCARDGARGYGMDVWGQGTTVTVSS
light, part: DIQMTQSPATLSLSPGERATLSCRASQSVSSYLAWYQQKPGQAPRLLIYDASNRATGIPARFSGSGSGTDFTLTISSLEPEDFAVYYCQQRSNWPPEVTFGPGTKVDIK

Target: human IGF-1R expressed on cells (human)
Assay: cell-based or functional assay

| Binder | inhibition of IGF-1- and IGF-2-mediated IGF-1R phosphorylation in MCF-7 cells, EC50 |
| --- | --- |
| B1 | < 1 nM |
| B2 | < 1 nM |
